# From patent publication US20050123972A1 (Bristol-Myers Squibb, published 2005)
# T1: wild-type human CCR3 (endogenous, on native human eosinophils) (human, UniProt P51677 1-355)
# T1 construct: This is the endogenous receptor on human eosinophils; also called eotaxin receptor; wild-type intact receptor in eosinophils
# T1 sequence: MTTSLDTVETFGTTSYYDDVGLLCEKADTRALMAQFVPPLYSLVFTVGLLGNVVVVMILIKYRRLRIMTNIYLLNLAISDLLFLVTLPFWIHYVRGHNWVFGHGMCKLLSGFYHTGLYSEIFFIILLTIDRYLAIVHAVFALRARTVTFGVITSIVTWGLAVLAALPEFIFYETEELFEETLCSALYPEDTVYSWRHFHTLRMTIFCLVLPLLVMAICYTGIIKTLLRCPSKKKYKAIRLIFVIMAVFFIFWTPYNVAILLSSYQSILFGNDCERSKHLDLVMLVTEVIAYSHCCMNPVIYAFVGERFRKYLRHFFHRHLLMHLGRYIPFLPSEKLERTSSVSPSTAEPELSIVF
# B1: human eotaxin (125I-labeled human eotaxin, Perkin Elmer #NEX-314; unlabeled recombinant human eotaxin, R&D Systems #320-EO/CF) (ligand)
# chain: not shown
# modifications: 125I label (position not given) on the tracer form
# notes: also called labeled (hot) eotaxin
# Key:
# [1] = biological target: T1, wild-type human CCR3 (endogenous, on …); assay: 125I-eotaxin binding to cells, filter plate assay
# Protocol: (§1) Invest. 97:604). In order to compare the ability of cells expressing chimeric human CCR3/2 molecules to that of cells expressing endogenous human CCR3 to bind eotaxin, a binding assay was performed. Depending upon the questions being asked, the cells in question were either human or mouse eosinophils, CHO-K1 cells expressing recombinant CCR3 or CCR3/2, parental CHO-K1 cells or other cell types. All assay steps were conducted at room temperature. Multiscreen assay plates (#MABVN1250, Millipore Inc., Marlborough, Mass.) were incubated with 100 μl/well of blocking solution (7.5 μg/ml protamine in PBS) to block non-specific binding. After 20 minutes, the blocking solution was removed and replaced with 100 μl of binding buffer, (RPMI 1640 (Life Technologies, Grand Island, N.Y.) containing 0.1% bovine serum albumin and 20 mM HEPES buffer) and incubated for at least an additional 10 minutes.
# (§2) When ready to use plate(s), the following procedure was employed. […]
# (§3) Binding data were analyzed using Microsoft EXCEL and then graphed using […] […]
# [2] = biological target: B1; assay: 125I-eotaxin binding to CHO CCR3/2 clone 5.5 cells, filter plate assay (FIG. 1)
# Protocol: as §1, §2, §3
binding result [1],binding result [2],Binder
binds,,B1
,binds,"chimeric CCR3/2 receptor (human CCR3 residues 1-310 joined to the cytoplasmic tail of human CCR2 isoform B), expressed on CHO-K1 cells (receptor, Expressed from the pFLAG-CMV-3 vector in CHO-K1 cells; also called CCR3/2 chimera; CHO CCR3/2 clone 5.5) MTTSLDTVETFGTTSYYDDVGLLCEKADTRALMAQFVPPLYSLVFTVGLLGNVVVVMILIKYRRLRIMTNIYLLNLAISDLLFLVTLPFWIHYVRGHNWVFGHGMCKLLSGFYHTGLYSEIFFIILLTIDRYLAIVHAVFALRARTVTFGVITSIVTWGLAVLAALPEFIFYETEELFEETLCSALYPEDTVYSWRHFHTLRMTIFCLVLPLLVMAICYTGIIKTLLRCPSKKKYKAIRLIFVIMAVFFIFWTPYNVAILLSSYQSILFGNDCERSKHLDLVMLVTEVIAYSHCCMNPVIYAFVGERFRKYLSVFFRKHITKRFCKQCPVFYRETVDGVTSTNTPSTGEQEVSAGL"
